# Assay results from the supplement of paper PMC9112550, “Optimization of the antimicrobial peptide Bac7 by deep mutational scanning” (BMC Biology, 2022).
# System: Escherichia coli TOP10
# Experiment: shrunken log2 fold change of peptide-encoding DNA abundance (4.5 h post-induction vs induction); higher = less antimicrobial activity (less host growth inhibition)
# Details: time post-induction: 4.5 h; library: site-saturation at positions 5, 18, 19, 20
# 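Note: peptides expressed intracellularly from a pBAD plasmid library in pooled LB shake-flask culture, induced with 0.3% L-arabinose, DNA abundance read by NGS, three biological replicates, DESeq2 with apeglm shrinkage.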
row,Sequence,shrunken log2 fold change
1,RRIRERPPRLPRPRPRPWYGPRP,-1.02
2,RRIRDRPPRLPRPRPRPYQCPRP,-0.00205
3,RRIRRRPPRLPRPRPRPFMFPRP,0.234
4,RRIRVRPPRLPRPRPRPHADPRP,0.00219
5,RRIRKRPPRLPRPRPRPNTMPRP,-0.209
6,RRIRVRPPRLPRPRPRPLWQPRP,2.32
7,RRIRIRPPRLPRPRPRPKGTPRP,0.0146
8,RRIRCRPPRLPRPRPRPASAPRP,0.248
9,RRIRDRPPRLPRPRPRPNMSPRP,-0.0444
10,RRIRDRPPRLPRPRPRPKHWPRP,0.723
11,RRIRYRPPRLPRPRPRPMMSPRP,-0.322
12,RRIRERPPRLPRPRPRPWRGPRP,0.166
13,RRIRYRPPRLPRPRPRPHVRPRP,-0.202
14,RRIRARPPRLPRPRPRPTPAPRP,1.05
15,RRIRNRPPRLPRPRPRPCGTPRP,-0.139
16,RRIRVRPPRLPRPRPRPEKAPRP,-0.114
17,RRIRERPPRLPRPRPRPEIQPRP,0.422
18,RRIRCRPPRLPRPRPRPYVRPRP,-0.0787
19,RRIRVRPPRLPRPRPRPKMWPRP,0.0893
20,RRIRIRPPRLPRPRPRPIRHPRP,-0.0741
21,RRIRARPPRLPRPRPRPCKRPRP,-0.0822
22,RRIRCRPPRLPRPRPRPKRMPRP,0.118
23,RRIRGRPPRLPRPRPRPKFIPRP,-0.425
24,RRIRIRPPRLPRPRPRPHWHPRP,-0.153
25,RRIRPRPPRLPRPRPRPIVWPRP,0.0606

row,Sequence,shrunken log2 fold change
1,RRIRMRPPRLPRPRPRPPKEPRP,-0.0231
2,RRIRWRPPRLPRPRPRPKVFPRP,-0.00123
3,RRIRHRPPRLPRPRPRPGEKPRP,-0.102
4,RRIRLRPPRLPRPRPRPAVIPRP,-0.339
5,RRIRHRPPRLPRPRPRPPHNPRP,0.348
6,RRIRGRPPRLPRPRPRPHHIPRP,-0.525
7,RRIRIRPPRLPRPRPRPAGQPRP,0.0455
8,RRIRSRPPRLPRPRPRPECMPRP,0.00574
9,RRIRDRPPRLPRPRPRPDSYPRP,-0.0336
10,RRIRQRPPRLPRPRPRPVHDPRP,0.0147
11,RRIRVRPPRLPRPRPRPAQEPRP,0.0593
12,RRIRCRPPRLPRPRPRPFCWPRP,0.31
13,RRIRYRPPRLPRPRPRPDQIPRP,0.0304
14,RRIRFRPPRLPRPRPRPWRMPRP,-0.166
15,RRIRRRPPRLPRPRPRPTRGPRP,0.661
16,RRIRFRPPRLPRPRPRPPAEPRP,0.606
17,RRIRNRPPRLPRPRPRPSNTPRP,-0.446
18,RRIRYRPPRLPRPRPRPAPMPRP,-0.0449
19,RRIRGRPPRLPRPRPRPAYEPRP,0.457
20,RRIRERPPRLPRPRPRPNYRPRP,-0.000813
21,RRIRDRPPRLPRPRPRPNYPPRP,0.0151
22,RRIRHRPPRLPRPRPRPRQLPRP,0.0862
23,RRIRIRPPRLPRPRPRPYLAPRP,-0.941
24,RRIRDRPPRLPRPRPRPRWKPRP,0.0064
25,RRIRTRPPRLPRPRPRPWSYPRP,-1.86

row,Sequence,shrunken log2 fold change
1,RRIRARPPRLPRPRPRPRVSPRP,0.492
2,RRIRIRPPRLPRPRPRPSHMPRP,-0.425
3,RRIRNRPPRLPRPRPRPPVPPRP,0.384
4,RRIRMRPPRLPRPRPRPREHPRP,0.402
5,RRIRARPPRLPRPRPRPDHGPRP,-0.144
6,RRIRCRPPRLPRPRPRPPIIPRP,-0.294
7,RRIRYRPPRLPRPRPRPGNMPRP,-0.55
8,RRIRGRPPRLPRPRPRPIFAPRP,0.609
9,RRIRPRPPRLPRPRPRPSQFPRP,-0.0669
10,RRIRKRPPRLPRPRPRPLQSPRP,0.295
11,RRIRGRPPRLPRPRPRPQQHPRP,0.232
12,RRIRWRPPRLPRPRPRPCCGPRP,0.293
13,RRIRLRPPRLPRPRPRPEGCPRP,0.191
14,RRIRTRPPRLPRPRPRPLFKPRP,1.5
15,RRIRPRPPRLPRPRPRPFIRPRP,0.00477
16,RRIRNRPPRLPRPRPRPYNQPRP,-0.597
17,RRIRDRPPRLPRPRPRPEVQPRP,0.988
18,RRIRNRPPRLPRPRPRPPNIPRP,-0.226
19,RRIRRRPPRLPRPRPRPRGFPRP,0.131
20,RRIRVRPPRLPRPRPRPEYSPRP,-0.273
21,RRIRFRPPRLPRPRPRPGHTPRP,-0.445
22,RRIRFRPPRLPRPRPRPFCPPRP,-0.386
23,RRIRARPPRLPRPRPRPDFEPRP,0.661
24,RRIRGRPPRLPRPRPRPPTIPRP,0.459
25,RRIRWRPPRLPRPRPRPNHAPRP,0.601

row,Sequence,shrunken log2 fold change
1,RRIRQRPPRLPRPRPRPYYEPRP,-0.172
2,RRIRLRPPRLPRPRPRPPIEPRP,-0.424
3,RRIRARPPRLPRPRPRPYVSPRP,-0.0383
4,RRIRERPPRLPRPRPRPHMAPRP,-0.0803
5,RRIRYRPPRLPRPRPRPEYSPRP,-0.0605
6,RRIRWRPPRLPRPRPRPMVLPRP,-0.243
7,RRIRIRPPRLPRPRPRPDWMPRP,-0.131
8,RRIRVRPPRLPRPRPRPQLVPRP,-0.048
9,RRIRQRPPRLPRPRPRPPYGPRP,-0.408
10,RRIRTRPPRLPRPRPRPGFKPRP,-0.0634
11,RRIRPRPPRLPRPRPRPHMFPRP,0.00976
12,RRIRRRPPRLPRPRPRPDWYPRP,0.0693
13,RRIRYRPPRLPRPRPRPSFFPRP,-0.665
14,RRIRNRPPRLPRPRPRPESKPRP,-0.0938
15,RRIRHRPPRLPRPRPRPQHTPRP,-0.386
16,RRIRQRPPRLPRPRPRPRNEPRP,-0.199
17,RRIRYRPPRLPRPRPRPNARPRP,-0.0675
18,RRIRDRPPRLPRPRPRPQIWPRP,0.352
19,RRIRERPPRLPRPRPRPNMHPRP,-0.619
20,RRIRNRPPRLPRPRPRPSLPPRP,-0.378
21,RRIRMRPPRLPRPRPRPDVQPRP,-0.00142
22,RRIRRRPPRLPRPRPRPSQWPRP,0.264
23,RRIRLRPPRLPRPRPRPWTFPRP,-0.0155
24,RRIRNRPPRLPRPRPRPSKRPRP,-0.0331
25,RRIRNRPPRLPRPRPRPVRLPRP,0.0814

row,Sequence,shrunken log2 fold change
1,RRIRDRPPRLPRPRPRPQPMPRP,-0.0809
2,RRIRSRPPRLPRPRPRPMEFPRP,0.00489
3,RRIRNRPPRLPRPRPRPWRAPRP,0.0962
4,RRIRMRPPRLPRPRPRPRENPRP,0.265
5,RRIRYRPPRLPRPRPRPMLDPRP,-0.467
6,RRIRYRPPRLPRPRPRPMMWPRP,0.00408
7,RRIRWRPPRLPRPRPRPETPPRP,1.33
8,RRIRNRPPRLPRPRPRPIGDPRP,-0.0116
9,RRIRERPPRLPRPRPRPNQEPRP,0.0174
10,RRIRNRPPRLPRPRPRPVGFPRP,0.165
11,RRIRARPPRLPRPRPRPDYIPRP,0.00625
12,RRIRNRPPRLPRPRPRPNAYPRP,-0.0738
13,RRIRMRPPRLPRPRPRPSQPPRP,0.22
14,RRIRGRPPRLPRPRPRPRACPRP,0.847
15,RRIRNRPPRLPRPRPRPTNAPRP,-0.182
16,RRIRRRPPRLPRPRPRPFTWPRP,-0.126
17,RRIRERPPRLPRPRPRPLQIPRP,-0.0796
18,RRIRPRPPRLPRPRPRPCMGPRP,-0.398
19,RRIRWRPPRLPRPRPRPIIVPRP,-0.138
20,RRIRFRPPRLPRPRPRPGQMPRP,0.172
21,RRIRPRPPRLPRPRPRPGSEPRP,0.0814
22,RRIRMRPPRLPRPRPRPPQWPRP,0.982
23,RRIRNRPPRLPRPRPRPCWYPRP,-0.0865
24,RRIRMRPPRLPRPRPRPEYDPRP,2.81
25,RRIRFRPPRLPRPRPRPWCQPRP,-0.0361

row,Sequence,shrunken log2 fold change
1,RRIRYRPPRLPRPRPRPNKLPRP,-0.987
2,RRIRQRPPRLPRPRPRPLKFPRP,-0.27
3,RRIRTRPPRLPRPRPRPSPHPRP,-0.159
4,RRIRIRPPRLPRPRPRPWKTPRP,-0.197
5,RRIRRRPPRLPRPRPRPNMWPRP,-0.253
6,RRIRWRPPRLPRPRPRPLYLPRP,-0.5
7,RRIRGRPPRLPRPRPRPKSSPRP,0.508
8,RRIRTRPPRLPRPRPRPGHNPRP,-0.184
9,RRIRMRPPRLPRPRPRPEYLPRP,-0.082
10,RRIRCRPPRLPRPRPRPVGMPRP,0.0711
11,RRIRKRPPRLPRPRPRPGPYPRP,0.104
12,RRIRTRPPRLPRPRPRPEPWPRP,0.291
13,RRIRSRPPRLPRPRPRPYIAPRP,-0.917
14,RRIRKRPPRLPRPRPRPMSNPRP,-0.00773
15,RRIRIRPPRLPRPRPRPWEAPRP,0.0112
16,RRIRWRPPRLPRPRPRPWPFPRP,0.481
17,RRIRKRPPRLPRPRPRPRFCPRP,0.554
18,RRIRSRPPRLPRPRPRPWRGPRP,0.59
19,RRIRVRPPRLPRPRPRPDCCPRP,-0.0439
20,RRIRMRPPRLPRPRPRPFRQPRP,0.0135
21,RRIRERPPRLPRPRPRPCYGPRP,-0.274
22,RRIRCRPPRLPRPRPRPTICPRP,-0.142
23,RRIRNRPPRLPRPRPRPRQHPRP,-0.103
24,RRIRIRPPRLPRPRPRPQAAPRP,-0.115
25,RRIRNRPPRLPRPRPRPSEAPRP,0.00843
